Values quoted from earlier work as cited in paper PMC3403913.

Molecular target: factor Va (Homo sapiens) (UniProt P12259)
UniProt P12259, sequence (P12259 29-737, chain 1 of 2): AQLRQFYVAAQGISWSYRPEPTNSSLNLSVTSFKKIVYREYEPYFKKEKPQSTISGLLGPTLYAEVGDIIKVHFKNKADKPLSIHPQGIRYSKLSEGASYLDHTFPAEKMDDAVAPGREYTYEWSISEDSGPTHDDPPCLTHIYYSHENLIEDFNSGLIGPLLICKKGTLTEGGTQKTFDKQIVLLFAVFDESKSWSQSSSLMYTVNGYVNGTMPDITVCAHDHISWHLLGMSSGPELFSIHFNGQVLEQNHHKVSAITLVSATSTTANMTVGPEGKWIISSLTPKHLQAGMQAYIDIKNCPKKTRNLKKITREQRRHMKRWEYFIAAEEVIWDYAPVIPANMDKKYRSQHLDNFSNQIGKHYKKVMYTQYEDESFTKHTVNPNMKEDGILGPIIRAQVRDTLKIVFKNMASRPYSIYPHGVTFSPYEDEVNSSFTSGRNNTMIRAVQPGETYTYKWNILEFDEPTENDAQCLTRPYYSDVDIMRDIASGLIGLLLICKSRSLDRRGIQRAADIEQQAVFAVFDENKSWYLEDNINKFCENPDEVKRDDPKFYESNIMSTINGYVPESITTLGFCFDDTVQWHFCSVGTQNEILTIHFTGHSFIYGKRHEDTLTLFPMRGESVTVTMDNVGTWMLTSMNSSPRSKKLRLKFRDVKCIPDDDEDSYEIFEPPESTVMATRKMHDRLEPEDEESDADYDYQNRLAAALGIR
UniProt P12259, sequence (P12259 1574-2224, chain 2 of 2): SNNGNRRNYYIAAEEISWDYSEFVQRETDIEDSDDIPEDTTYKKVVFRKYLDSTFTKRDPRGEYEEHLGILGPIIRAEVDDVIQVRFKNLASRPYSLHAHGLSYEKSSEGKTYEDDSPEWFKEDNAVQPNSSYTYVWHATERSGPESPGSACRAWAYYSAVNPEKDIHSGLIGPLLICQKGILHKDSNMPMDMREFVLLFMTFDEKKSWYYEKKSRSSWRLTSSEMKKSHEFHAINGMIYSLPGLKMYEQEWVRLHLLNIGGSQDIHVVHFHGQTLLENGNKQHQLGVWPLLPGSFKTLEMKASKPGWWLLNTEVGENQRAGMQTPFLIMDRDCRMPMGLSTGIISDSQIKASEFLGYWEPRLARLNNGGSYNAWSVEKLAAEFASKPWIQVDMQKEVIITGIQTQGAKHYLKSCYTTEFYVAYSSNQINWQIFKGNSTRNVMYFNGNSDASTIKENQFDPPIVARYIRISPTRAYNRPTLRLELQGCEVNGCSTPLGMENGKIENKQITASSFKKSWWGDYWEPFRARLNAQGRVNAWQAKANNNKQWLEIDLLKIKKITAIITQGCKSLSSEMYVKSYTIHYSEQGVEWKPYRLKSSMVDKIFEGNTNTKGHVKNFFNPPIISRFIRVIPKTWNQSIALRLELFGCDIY

Kd: 0.5 nM
Substance: factor Xa (from UniProt P00742)
